The series deals with T1, BsmT (Stenotrophomonas maltophilia ATCC 13637 (CGMCC 1.1788 in supplement)), ORF:ed0b4815.
T1 sequence: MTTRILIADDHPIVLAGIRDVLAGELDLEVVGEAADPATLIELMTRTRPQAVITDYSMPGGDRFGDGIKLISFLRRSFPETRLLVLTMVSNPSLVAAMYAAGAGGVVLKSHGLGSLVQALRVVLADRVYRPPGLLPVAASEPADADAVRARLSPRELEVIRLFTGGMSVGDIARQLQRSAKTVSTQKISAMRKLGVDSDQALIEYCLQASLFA
The series is described as follows: EMSA. Particulars: EMSA: 1 fmol 32P-labelled dsDNA with BsmT in reaction buffer at 28 °C; buffer composition, salt and pH not given (protein storage buffer 50 mM Tris-HCl, 0.5 mM …).

This is an account of results in publication PMC5498567.

As for “GTGCCCGGCCAATGTCGGTACAGGAAACCCCCGCTTCGGCGGGGGTTCCTTTTTTTGCCACCTGAACGGTGCCCGCGTGCAGGCTCCGGGCCGGTCGGCCAGCCGGGGATTTTAGGAAACAGCTGATTCCGCGCCGTCCGCGCCGCTTCCTAGCATCGTTGC (double strand)”, the binding result was “binds”.
